Experimental findings from PMC3544828 are described below.

Data set [1] concerns the target T1, CcpA (Staphylococcus aureus COL) (UniProt Q5HF38).
T1 sequence: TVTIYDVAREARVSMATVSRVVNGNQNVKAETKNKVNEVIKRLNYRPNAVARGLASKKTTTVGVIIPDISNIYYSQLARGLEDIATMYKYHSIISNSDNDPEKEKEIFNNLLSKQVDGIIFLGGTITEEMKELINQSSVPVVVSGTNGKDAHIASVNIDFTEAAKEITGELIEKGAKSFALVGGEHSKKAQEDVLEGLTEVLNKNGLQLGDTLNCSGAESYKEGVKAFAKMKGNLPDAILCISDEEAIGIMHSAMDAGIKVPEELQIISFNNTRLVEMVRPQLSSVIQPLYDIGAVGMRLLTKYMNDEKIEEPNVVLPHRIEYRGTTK
As to the kind of experiment: EMSA. Conditions: Room temperature, 15 min, 250 fmol each of specific and non-specific probe; protein stock in 10 mM Tris-HCl pH 7.5, 100 mM NaCl, 10% glycerol (binding buffer …). A general note: A gel shift assay detects complexes by their altered migration in electrophoresis.

Data set [2] has as its target T2, Rex (Staphylococcus aureus COL) (UniProt Q5HEF5).
T2 sequence: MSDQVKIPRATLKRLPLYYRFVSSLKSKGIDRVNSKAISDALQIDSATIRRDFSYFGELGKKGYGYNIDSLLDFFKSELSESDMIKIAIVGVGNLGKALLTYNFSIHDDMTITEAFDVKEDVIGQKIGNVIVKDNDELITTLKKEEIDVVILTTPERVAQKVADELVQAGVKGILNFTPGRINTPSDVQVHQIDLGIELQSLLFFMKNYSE
The experiment in a line: EMSA. The note with it: Room temperature, 15 min, 250 fmol each of specific and non-specific probe; protein stock in 10 mM Tris-HCl pH 7.5, 100 mM NaCl, 10% glycerol (binding buffer …).

With “CTCCCCTTTTCATCATTTATAACTATTATACATGAAACATTATCCAAATAATTACATTAGTTTTCAAAGCAGATACTTTTCCACCAAAAAAGATGAAATAATCACTAAGTTTCATTAAATTTGTCTATTTTGAAAACCCTTACATTTATAATGACATAATTACTTAAATGATTACAAGCAAAAGAATTGATAATTTTACACTTAATC (double strand) [ProcD2 promoter fragment]”, in data set [1], the binding result is “binds”.

For the sequence “CGCATAACTTAAAAGGTCATGTGTCATCCGCTTTTAAGTTTGTGATTTATTTCACATATAAAATGTAACATGCATTAAGTACTGGGTCAATATTAAATTGTGATTTATTTCACATTTTATTTTAATTTTTACACCTTTTTAATTTGTATACGATTACATCTTAGATGTCTTTAGTCTTCGTACTTCGCCAGTGATTATTTACAC (double strand) [Pldh1 promoter fragment]”, the values for the binding entry in data set [1] and in data set [2] were “no binding” and “binds”, respectively.
